Series [1] addresses T1, proteinase K (Parengyodontium album, UniProt P06873). As to the kind of experiment: Proteinase K digestion of synthetic Aβ in lysis buffer, western blot. The class given is in vitro ADME. The note with it: 1 h, 37°C, western blot 6E10; for Immunoreactivity with 6E10 after PK digestion (PK sensitivity): peptide in 1X PBS diluted in 1X lysis buffer, no DMSO, smallest amount of PK 5 μg/ml (range 0-50 μg/ml); for PK sensitivity of peptides dissolved in DMSO: 1X lysis buffer, PK 0-50 μg/ml. Background: A western blot detects proteins with antibodies after separation by electrophoresis.

Series [2] can be described thus: Negative-stain electron microscopy of synthetic Aβ with and without PK digestion. It counts as physicochemical. Conditions: for Fibrils seen by electron microscopy after PK digestion: PK-treated peptide preparations, negative stain EM; for Fibril formation and morphology by electron microscopy: peptide in PBS, without PK, negative stain 2% uranylacetate, 80 kV. The source says: To further rule out this possibility, PK-treated peptides were also examined by EM.
The excess buffered-protein solution was removed, and negatively stained with 2% uranylacetate. Grids were then washed by touching a buffer and the excess buffer blotted off immediately using a Whatman filter paper. Grids were then air-dried and kept at room temperature. Negatively stained specimens were observed by a JEOL 1200EX electron microscope (JEOL, Tokyo, Japan) with 80 kV of electron acceleration voltage.

The format of series [3] is physicochemical. The note with it: spiked into HuPrP-Tg mouse brain homogenate, RT 12 h, 10-60% sucrose step gradient, 200,000 x g, 1 h, 4°C, western blot 6E10; for Sucrose gradient fractions holding the majority of the peptide: 12 fractions from top.
The conditions of series [4]: pH 7.5.
The target in series [5] is T1, proteinase K. As to the kind of experiment: Proteinase K digestion of synthetic Aβ spiked into non-AD brain homogenate. The note with it: spiked into non-AD brain homogenate with no detectable endogenous Aβ; P2 fraction; PK 0-50 μg/ml, 1 h, 37°C; western blot 6E10.

T1 sequence (P06873 106-384): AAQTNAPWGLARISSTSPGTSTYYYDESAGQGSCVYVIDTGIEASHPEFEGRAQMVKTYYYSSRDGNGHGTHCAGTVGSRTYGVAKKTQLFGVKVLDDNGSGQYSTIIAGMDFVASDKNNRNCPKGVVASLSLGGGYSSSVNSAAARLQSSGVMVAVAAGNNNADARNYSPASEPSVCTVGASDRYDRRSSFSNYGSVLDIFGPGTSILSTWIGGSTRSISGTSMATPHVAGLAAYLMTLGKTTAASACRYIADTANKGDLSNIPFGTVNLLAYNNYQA

“Aβ40: synthetic amyloid β peptide Aβ40 purchased from Sigma”: in the series with proteinase K [1], the “Immunoreactivity with 6E10 after PK digestion (PK sensitivity)” value was “No immunoreactivity” and the “PK sensitivity of peptides dissolved in DMSO” value is “PK-sensitive”. Also, in series [2], the “Fibrils seen by electron microscopy after PK digestion” value is on record as “no fibrils or significant structures could be observed”; the “Fibril formation and morphology by electron microscopy” value was “relatively scarce but much longer”. Also, in series [3], the “Sucrose gradient fractions holding the majority of the peptide” value was “between fractions 1 and 3”; the “Large aggregates in bottom fractions 10-12 of the sucrose gradient” value is reported as “detected in significant amounts in fractions 10 to 12”. In addition, the “Detergent solubility: fraction in which the peptide is detected (S2 supernatant = soluble, P2 pellet = insoluble)” value in series [4] is recorded as “only in the S2 but not in the P2”. The “PK resistance of spiked peptide (PK concentration resisted)” value with proteinase K [5] is ≥ 50 µg/mL.

With “Aβ42: synthetic amyloid β peptide Aβ42 purchased from Sigma”, in the series with proteinase K [1], the “Immunoreactivity with 6E10 after PK digestion (PK sensitivity)” value is given as “No immunoreactivity” and the “PK sensitivity of peptides dissolved in DMSO” value is given as “PK-sensitive”. In series [2], the “Fibrils seen by electron microscopy after PK digestion” value is on record as “no fibrils or significant structures could be observed”; the “Fibril formation and morphology by electron microscopy” value was “numerous but short fibrils”. In series [3], the “Sucrose gradient fractions holding the majority of the peptide” value was “between fractions 1 and 3”; the “Large aggregates in bottom fractions 10-12 of the sucrose gradient” value is “smaller amounts”. For the same substance, the “PK resistance of spiked peptide (PK concentration resisted)” value with proteinase K [5] is ≥ 50 µg/mL.
